Results as given in patent US20220195015A1 (published 2022).

Target: SARS-CoV-2 spike protein receptor binding domain (RBD), wild type (SARS-CoV-2, UniProt P0DTC2 319-539)
Assay: ELISA, RBD protein coated on plate, antibody titrated

Binder | EC50
C511 (antibody, V domains shown) VH: EVQLVESGGGLVQPGGSLRLSCAATEITVSSNYMTWVRQAPGKGLEWVSVIYPGGSTFYADSVKGRFSISRDNSKNTLYLQMNSLRAEDTAVYYCARDLVVYGLDCWGQGTLVTVSS VL: DIQLTQSPSFLSASVGDRVTITCRASQGISSYLAWYQQKPGKAPKLLIYAASTLQSGVPSRFSGSGSGTEFTLTISSLQPEDFATYYCQQLNTYPPPFGGGTKVEIK | 1.33 ng/mL
C515 (antibody, V domains shown) VH: EVQLVESGGGLVQPGGSLRLSCAASGFIVSSNYMSWVRQAPGKGLEWVSILYSGGSTYYADSVKGRFTISRDNSKNTLYLQMNSLRAEDTAVYYCARDLVVYGADYWGQGTLVTVSS VL: DIQLTQSPSFLSASVGDRVTITCRASQGISSYLAWYQQKPGKAPKLLIYAASTLQSGVPSRFSGSGSGTEFTLTISSLQPEDFATYYCQQLNSYPPPFGGGTKVEIK | 1.73 ng/mL
C516 (antibody, V domains shown) VH: QVQLVQSGAEVKKPGSSVKVSCKASGGTFSSYAISWVRQAPGQGLEWMGRIIPMLVIATYARKFQGRVTITADKSTSTAYMELSSLRSEDTAVYYCARGVVAATPGNFDIWGQGTMVTVSS VL: EIVMTQSPATLSVSPGERATLSCRASQSVSSNLAWYQQKPGQAPRLLIYGASTRATGIPARFSGSGSGTEFTLTISSLQSEDFAVYYCQQYNNGLTFGGGTKVEIK | 5.72 ng/mL
C512 (antibody, V domains shown) VH: QVQLQESGPGLVKPSGTLSLTCAVSAGSISSNNWWSWVRQPPGKGLEWIGEVYHNGNINYNPSLKSRVTLSVDKSKNQFSLKLSSVTAADTAVYYCAKGGDRAMGPEYFDSWGQGTLVTVSS VL: QSALTQPASVSGSPGQSITISCTGTSSDVGANNYVSWYQQHPGKAPKLMIYDVNERPSGVSNRFSGSKSGNTASLTISGLQTEDEADYYCSSFASSSTLLFGGGTKLTVL | 1.68 ng/mL
C510 (antibody, V domains shown) VH: QVQLQQWGAGLLKPSETLSRTCAVYGGSFSGYYWSWFRQSPGKGLEWIGEINHSGSTNYNPSLKNRVTISVDTSKNQFSLMLSSVTAADTAVYYCARGGFGVVINYYYSGMDVWGRGTTVTVSS VL: not shown | 308 ng/mL
C509 (antibody, V domains shown) VH: QVQLQESGPGLVKPSGTLSLTCAVSGGSISSSNWWSWVRQPPGKGLEWIGEIYNSGSTNYNPSLKSRVTILVDKSKNQFSLKLSSVTAADTAVYYCAGSYSNYIGGVWFDPWGQGTLVTVSS VL: EIVLTQSPATLSLSPGERATLSCRASQSVSTYLAWYQQKPGQAPRLLIYDASNRATGIPARFSGSGSGTDFTLTISSLEPEDFAVYYCQQRNNWLTFGGGTKVEIK | 4.44 ng/mL
C526 (antibody, V domains shown) VH: QVQLVQSGAEVKKPGASVKVSCKASGHTFTTYYLHWVRQAPGQGLEWMGRIDPSGGSTTYAQKFQGRVTMTRDTSTSTVYMELSSLRSEDTALYYCARGGYCGSTSCSPDDYFDYWGQGTLVTVSS VL: SYELTQPPSVSVAPGKTARITCGGNNIGSKSVHWYQQKPGQAPVLVIYYDSDRPSGIPERFSGSNSGNTATLTISRVEAGDEADYYCQVWDSSSDHYYVFGTGTKVTVL | 18.2 ng/mL
C514 (antibody, V domains shown) VH: EVQLVESGGGLVQPGGSLRLSCAASEFIVTRNYMSWVRQAPGKGLEWVSLIYPGGSTFYADSVKGRFTISRDNSKNTLFLHMNSLRAEDTAVYYCARDLAGRLDYWGQGTLVTVSS VL: DIQMTQSPSSLSASVGDRVTITCQASQDINNFLNWYQQKPGKAPKLLIYDASNLETGVPSRFSGSGSGTDFTFTISSLQPEDIAIYYCQQYDSLSRLTFGGGTKVEIK | 0.82 ng/mL
C517 (antibody, V domains shown) VH: EVQLVESGGGLVQPGGSLRLSCAASEFIVSRNYMSWVRQAPGKGLEWVSLIYSGGSTYYADSVKGRFTISRDNSKNTLYLQMNSLRAEDTAMYYCARDIAGRLDYWGQGTLVTVSS VL: DIQMTQSPSSLSASVGDRVTITCQASQDISKYLNWYQQKPGKAPKLLIYDASNLETGVPSRFSGSGSGTDFTFTISSLQPEDFATYYCQHYDSLSRLTFGGGTKVEIK | 0.87 ng/mL
C597 (antibody, V domains shown) VH: QVQLVQSGPEVKKPGTSVKVSCKASGFTFTNSAVQWVRQSRRQRLEWIGWIVVGSGNTNYAQKFQERVTITRDMSTSTAYMELSSLRSEDTAVYYCAAVDCNSTSCYDAFDIWGQGTMVTVSS VL: EIVLTQSPGTLSLSPGERATLSCRASQSFRSSYLAWYQQKPGQAPRLLIYGASSRATGIPDRFSGSGSGSDFTLTISRLEPEDFAVYYCQQYDISPWTFGQGTKVEIK | 3.77 ng/mL
C598 (antibody, V domains shown) VH: QVQLVQSGPEVKKPGTSVKVSCKASGFTFSSSAVQWVRQARGQRLEWIGWIVVGSGNTNYAQKFQERVTITRDMSTSTAYMELSSLRSEDTAVFYCAAPYCNVTTCFDGFNIWGRGTMVTVSS VL: EIVLTQSPGTLSLSPGERATLSCRASQSVRSSYFAWYQQKPGQAPRLLIYAASSRATGIPDRFSGSGSGTDFTLTISRLEPEDFALYYCQQYGSSPWTFGQGTKVEIK | 3.78 ng/mL
C525 (antibody, V domains shown) VH: EVQLVESGGRLVQPGRSLRLSCAASGFTFDDYAIHWVRQAPGKGLEWVSGISWNSGSIGYADSVRGRFTISRDNAKNSLYLQMNSLRAEDTALYYCAKGLDSSSSASPDYWGQGTLVTVSS VL: DIQMTQSPSSVSASVGDRVTITCRASQDISSWLAWYQQKPGKAPKLLIYLASSLQSGVPSRFSGSGSGTDFILTISSLQPEDFGTYYCQQGNSFPLTFGGGTKVEIK | 10.6 ng/mL
C513 (antibody, V domains shown) VH: EVQLLESGGGLVQPGGSLRLSCVASGFSFSTYAMSWVRQAPGQGLEWVSTITGTSIGTYYADSVKGRFTISRDNSKNTVFLQMKSLRAEDAAVYYCANHPLASGDEYYYYYMDVWGKGTTVTVSS VL: EIVLTQSPDTLSLSPGERATLSCRASQSVHSKQLAWYQQKPGQAPRLLIYGASSRATGIPDRFSGSGSGTDFTLTISRLEPEDFAVYYCQQYGSIRALTFGGGTKVEIK | 1.31 ng/mL
C524 (antibody, V domains shown) VH: EVQLVESGGDLIQPGGSLRLSCAASGFSVSNSYMSWVRQAPGKGLEWVSIIYSGGSTYYADSVKGRFTISRDNSKNTLYLQMNSLRAEDTAVYFCAKTPRGDYDSSGTSAYWGQGTLVTVSS VL: QLVLTQSPSASASLGASVNLTCTLSSGHSSYAIAWHQQQPEKGPRFLMKLSSDGSHNKGDGIPDRFSGSSSGAERFLTISSLQSEDEADYYCQTWGIGSDWVFGGGTKLTVL | 5 ng/mL
C507 (antibody, V domains shown) VH: EVQLVESGGGVVQPGRSLRLSCAASGFTFSSYAIHWVRQAPGKGLEWVAVISFDGSNKYYRDSVKGRFTISRDNGKNTLYLQMNSLRAEDTAVYYCAKAALGYCTNGVCYCDNWGQGTLVTVSS VL: NFMLTQPHSVSESPGKTVTISCTGSSGSIASNYVQWYQQRPGSAPTTVIYEDNQRPSGVPDRFSGSIDSSSNSASLSISGLKTEDEADYYCQSYDINSLWVFGGGTRLTVL | 5.6 ng/mL
C523 (antibody, V domains shown) VH: QVQLQESGPGLVKPSETLSLTCTVSGASISSHYWSWIRQPPGKGLEWIGYIHYIGSTNYNPSLKSRVTILLDTSKNQFSLRLRSVTAADTAVYYCARGWPYCGVDCYSGFDYWGQGTLVTVSS VL: not shown | 9.08 ng/mL
